Target: T1, TmrA-A591C (Thermus thermophilus, UniProt Q72J05 1-600, A591C)
T1 sequence (looked up): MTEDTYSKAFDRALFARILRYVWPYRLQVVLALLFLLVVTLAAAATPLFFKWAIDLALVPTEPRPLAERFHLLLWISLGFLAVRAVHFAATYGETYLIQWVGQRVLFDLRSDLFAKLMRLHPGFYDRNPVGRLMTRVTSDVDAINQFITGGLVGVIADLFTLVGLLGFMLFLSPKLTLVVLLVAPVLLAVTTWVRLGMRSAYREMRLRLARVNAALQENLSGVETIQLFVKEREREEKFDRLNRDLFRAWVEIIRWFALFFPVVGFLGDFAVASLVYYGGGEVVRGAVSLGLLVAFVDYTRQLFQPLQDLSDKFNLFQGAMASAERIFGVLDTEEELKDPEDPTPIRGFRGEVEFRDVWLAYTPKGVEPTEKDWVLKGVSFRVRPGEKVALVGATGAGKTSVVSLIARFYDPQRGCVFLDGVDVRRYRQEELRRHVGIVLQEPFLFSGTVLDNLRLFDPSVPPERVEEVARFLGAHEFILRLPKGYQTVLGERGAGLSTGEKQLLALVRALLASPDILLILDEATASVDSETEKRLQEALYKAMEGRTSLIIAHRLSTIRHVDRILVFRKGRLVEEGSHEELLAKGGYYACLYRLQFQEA
Assay: cross-linking

- binding result: binds
B1: TmrB-A567C (natural protein, Thermus thermophilus, UniProt Q72J04 1-578, looked up)
chain: MTGRSAAPLLRRLWPYVGRYRWRYLWAVLAGLVSIFFFVLTPYFLRLAVDAVQAGRGFGVYALAIVASAALSGLLSYAMRRLAVVASRQVEYDLRRDLLHHLLTLDRDFYHKHRVGDLMNRLNTDLSAVREMVGPGILMGSRLSFLVLLAFLSMYAVNARLAFYLTLILPGIFLAMRFLLRLIDRRYREAQEVFDRISTLAQEAFSGIRVVKGYALERRMVAWFQDLNRLYVEKSLALARVEGPLHALLGFLMGFAFLTVLWAGGAMVVRGELSVGELVQFNAYLAQLTWPILGLGWVMALYQRGLTSLRRLFELLDEKPAIRDEDPLPLALEDLSGEVRFEGVGLKRDGRWLLRGLTLTIPEGMTLGITGRTGSGKSLLAALVPRLLDPSEGRVYVGGHEARRIPLAVLRKAVGVAPQEPFLFSETILENIAFGLDEVDRERVEWAARLAGIHEEILAFPKGYETVLGERGITLSGGQRQRVALARALAKRPKILILDDALSAVDAETEARILQGLKTVLGKQTTLLISHRTAALRHADWIIVLDGGRIVEEGTHESLLQAGGLYCEMDRLQKEVEA
